In article PMC6208348:
pKd: −log10 of the molar value. Where two headings read alike, the source gives them in different places.

Experiments:
mini peptide GGpYGG = assay: fluorescence polarisation
Shc1-pTyr239 = assay: FP
[1] = molecular target: DnaJ-A1-pTyr381 ∆C peptide (human) (UniProt P31689); assay: FP
[2] = molecular target: DnaJ-A1-pTyr381 ∆N peptide (human) (UniProt P31689); assay: FP
EGFR-pTyr1086 = assay: FP
Shc1-pTyr317 = assay: FP
VCP-pTyr805-tail7 = assay: FP
EGFR-pTyr954 = assay: FP
MidT-pTyr324 = assay: FP; conditions: natural protein

With L. dumoffii LUSH (natural protein) the pKd (mini peptide GGpYGG) was 6.42.

For L. anisa LeSH2b (Lani_WP_019234638), the pKd (Shc1-pTyr239; natural protein) was 4.42, the pKd ([1]; natural protein) was 4.78 and the pKd ([2]; natural protein) was 4.65. For the same substance, the pKd (EGFR-pTyr1086; natural protein) was < 4.30, the pKd (Shc1-pTyr317; natural protein) was 4.39 and the pKd (VCP-pTyr805-tail7; natural protein) was 4.51. For the same substance, the pKd (EGFR-pTyr954; natural protein) was < 4.30.

For L. waltersii LeSH5 tandem SH2, the pKd (Shc1-pTyr239) was 5.21, the pKd [1] was 4.54 and the pKd [2] was 4.82. The pKd (EGFR-pTyr1086) was 4.47 and the pKd (Shc1-pTyr317) was 4.86.

In the case of L. dumoffii LeSH1a, the pKd (MidT-pTyr324) was < 4.30, the pKd (Shc1-pTyr239; natural protein) was < 4.30 and the pKd ([1]; natural protein) was < 4.30. For the same substance, the pKd ([2]; natural protein) was < 4.30, the pKd (Shc1-pTyr317; natural protein) was < 4.30 and the pKd (VCP-pTyr805-tail7; natural protein) was < 4.30.

With L. pneumophila DoSH C-SH2 the pKd [2] was 4.50 and the pKd (EGFR-pTyr1086) was 4.90.

L. dumoffii LeSH2 showed a pKd (Shc1-pTyr239; natural protein) of 5.61, a pKd (EGFR-pTyr1086; natural protein) of 4.83 and a pKd (Shc1-pTyr317; natural protein) of 5.03. For the same substance, the pKd (VCP-pTyr805-tail7; natural protein) was 5.04.

With L. longbeachae LeSH (natural protein) the pKd (mini peptide GGpYGG) was 5.44.

Substance L. pneumophila LeSH2 has a pKd (Shc1-pTyr239) of 5.44, a pKd [1] of 5.96 and a pKd (EGFR-pTyr1086) of 4.50. It also gave a pKd (Shc1-pTyr317) of 5.06 and a pKd (EGFR-pTyr954) of 4.35.

L. anisa LeSH2a (Lani_0711) showed a pKd (Shc1-pTyr239; natural protein) of 5.52, a pKd (VCP-pTyr805-tail7; natural protein) of 5.60 and a pKd (EGFR-pTyr954; natural protein) of 5.10.

Work on L. dumoffii LeSH2 (natural protein) yielded a pKd (mini peptide GGpYGG) of 4.83.

Src SH2 TrM (superbinder) gave a pKd (VCP-pTyr805-tail7) of 5.92.

With L. anisa LeSH1b (Lani_2495) the pKd (Shc1-pTyr239; natural protein) was < 4.30, the pKd ([1]; natural protein) was < 4.30 and the pKd ([2]; natural protein) was < 4.30. The pKd (Shc1-pTyr317; natural protein) was < 4.30 and the pKd (VCP-pTyr805-tail7; natural protein) was < 4.30.
